Assay results: patent US20170305975A1

What was measured:
[1] = molecular target: amyloid-β 1-42 fibers (fAβ42) (human) (UniProt P05067); assay: Aβ binding competition assay; ArgC-treated M13 as competitor of Alexa-488 M13; fifth bar, label printed [5 FOLD] (the text speaks of 15 fold)
[2] = molecular target: amyloid-β 1-42 fibers (fAβ42) (human) (UniProt P05067); assay: Aβ binding competition assay; ArgC-treated M13 as competitor of Alexa-488 M13

Sequence of amyloid-β 1-42 fibers (fAβ42) (human) (P05067 672-713 limits assumed): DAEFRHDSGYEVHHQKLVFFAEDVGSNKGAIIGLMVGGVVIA

Substance: M13Δg3p (M13 phage with g3p removed by ArgC protease)
- ALEXA LABELED 488 PELLETED [1]: 85.9
- ALEXA LABELED 488 PELLETED [2]: 86.7
